From patent US12227579B2, “Bispecific antibody targeting IL-1R1 and NLPR3” (University of Ulster, priority 2018, dated 2025)

How the values were obtained:
[1] = test system: THP1 cells; test: Caspase-1 activation in THP1 cells (FAM-FLICA staining, confocal); format: cell-based
Description: THP1 cells, for FIG. 34, were cultured in 96-well plates at 100,000 cells/200 ul complete media. PMA ([…] for 72 hours) was used to differentiated THP-1 cells into macrophages. Following 24 hours of rest, differentiated THP1 cells were stimulated with LPS (1 ug/ml) for 3 hours, treated with the IL-1R1/NLRP3 Ab (1 ug/ml) for 30 minutes, followed by ATP (5 mM) for 1 hour. Caspase-1 activation was assessed by staining cells with a non-cytotoxic Fluorescent Labelled Inhibitor of Caspase-1 (FAM-FLICA) and DAPI (nuclear stain). Cells were treated with LPS alone (negative control), LPS+ATP (positive control), mouse IgG2a (1 ug/ml, Ab control), or IL-1 r/NLRP3 bi-specific Ab (1 ug/ml, experimental). Representative confocal images are shown for each group. Green=active caspae-1 and blue=Dapi/nuclear stain.
(§1) Internalization of Inflamab—see FIG. 35. THP1 cells, for FIG. 35, were cultured in 96-well plates at 100,000 cells/200 ul complete media. Differentiation of THP1 cells was induced by PMA (100 ug/ml for 72 hours). Following 24 hours of rest, differentiated THP1 cells were stimulated with LPS (1 ug/ml) for 3 hours, treated with a pHrodo red labelled IL-1 r/NLRP3 Ab (1 ug/ml) for 30 minutes, followed by ATP (5 mM) for 1 hour. The internalization of the Ab was tracked using a pHrodo red labelled bi-specific Ab that only fluoresces when internalized.

[2] = test system: microbead-induced mouse model of glaucoma; test: Microbead-induced mouse model of glaucoma; format: in vivo
Description: In the current study, WT C57BL/6J mice are receiving a single intravitreal injection of Inflamab (final vitreous concentration of 2.5, 25, or 250 ng/ml) on Day 0, immediately preceding the injection of microbeads and mice receiving saline only (no beads) are serving as a non-glaucoma control. RGC function is currently being measured by pERG using a fully integrated ERG system for rodents (Celeris). Changes in pERG amplitude is being measured in mice that received microbeads only and compared to mice that received microbeads plus Inflamab (final vitreous concentration of 2.5, 25, and 250 ng/ml) or saline only (no beads) [FIG. 42]. […] Visual acuity using an optomotor reflex-based spatial frequency threshold test, as well as RGC and axon quantification, is performed to further corroborate the neuroprotective effect of Inflamab and including additional control groups (microbead-injected mice treated with the appropriate IgG control antibody).
RGC analysis in WT mice treated with the NLRP3 inhibitor MCC950—see FIG. 41. […]
RGC function in WT mice treated with the NLRP3 inhibitor InflaMab—see FIG. 42. […] RGC function was measured by pERG using a fully integrated ERG system for rodents (Celeris) and changes in pERG amplitude was measured in mice that received microbeads only and compared to mice that received microbeads plus Inflamab (2.5, 25, and 250 ng/ml) or saline only (no beads). […]

[3] = test system: THP1 cells; test: IL-1β release from LPS/ATP-stimulated differentiated THP1 cells (ELISA); format: cell-based; conditions: PMA-differentiated THP1, LPS 1 μg/ml 3 h, Ab 0.0025-2.5 ng/ml (FIG. 33a) or 1 nM (FIG. 33b) 30 min, ATP 5 mM 1 h; supernatant ELISA
Description: THP1 cells, for FIGS. 33a and b, were cultured in 96-well plates at 100,000 cells/200 μl complete media. PMA (100 μg/ml for 72 hours) was used to differentiate THP-1 cells into macrophages. Following 24 hours of rest, differentiated THP1 cells were stimulated with LPS (1 μg/ml) for 3 hours, treated with MCC950 (1 μM) or the IL-1R1/NLRP3 Ab in a dose dependent fashion from 0.0025 ng/ml to 2.5 ng/ml for FIG. 33a or with IL-1R1/NLRP3 Ab (1 nM) for FIG. 33b or with IgG control antibody for 30 minutes, followed by ATP (5 mM) for 1 hour. IL-1 release was measured in the supernatant by ELISA.

[4] = test system: THP1 cells; test: Internalization of pHrodo red labelled bi-specific Ab in THP1 cells; format: cell-based; conditions: pHrodo red labelled Ab 1 ug/ml 30 min, LPS then ATP; confocal image
Description: as §1

[5] = biological target: NLRP3 inflammasome (Homo sapiens, UniProt Q96P20); test: NLRP3 assembly in vitro assay; conditions: among hybridoma clones
Sequence of NLRP3 inflammasome (Q96P20 whole entry): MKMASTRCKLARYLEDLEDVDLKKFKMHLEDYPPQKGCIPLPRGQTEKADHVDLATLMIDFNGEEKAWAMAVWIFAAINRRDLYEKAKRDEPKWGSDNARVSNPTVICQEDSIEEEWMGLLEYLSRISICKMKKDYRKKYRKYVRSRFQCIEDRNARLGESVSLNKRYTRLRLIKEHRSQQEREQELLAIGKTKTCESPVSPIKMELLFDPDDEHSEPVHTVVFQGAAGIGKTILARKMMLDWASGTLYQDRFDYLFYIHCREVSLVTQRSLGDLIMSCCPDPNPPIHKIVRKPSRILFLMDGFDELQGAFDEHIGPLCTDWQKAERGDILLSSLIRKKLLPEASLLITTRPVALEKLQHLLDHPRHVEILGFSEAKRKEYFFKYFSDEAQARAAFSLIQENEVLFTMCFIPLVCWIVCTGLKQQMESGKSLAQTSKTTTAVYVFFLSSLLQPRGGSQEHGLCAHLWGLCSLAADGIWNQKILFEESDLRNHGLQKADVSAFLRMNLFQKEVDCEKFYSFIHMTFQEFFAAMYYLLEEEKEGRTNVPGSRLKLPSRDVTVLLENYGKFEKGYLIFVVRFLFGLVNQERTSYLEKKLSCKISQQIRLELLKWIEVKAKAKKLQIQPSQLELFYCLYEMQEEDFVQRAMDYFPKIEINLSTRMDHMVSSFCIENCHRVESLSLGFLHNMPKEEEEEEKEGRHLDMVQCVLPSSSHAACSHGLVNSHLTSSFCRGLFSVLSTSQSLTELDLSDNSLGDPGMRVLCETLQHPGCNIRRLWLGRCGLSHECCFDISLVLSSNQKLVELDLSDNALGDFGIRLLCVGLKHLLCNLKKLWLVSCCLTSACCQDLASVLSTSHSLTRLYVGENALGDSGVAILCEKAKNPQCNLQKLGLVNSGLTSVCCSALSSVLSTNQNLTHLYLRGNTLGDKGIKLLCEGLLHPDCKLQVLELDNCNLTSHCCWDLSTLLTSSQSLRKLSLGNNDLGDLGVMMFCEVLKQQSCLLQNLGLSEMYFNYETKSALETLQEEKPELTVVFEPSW

Row | Molecule | caspase-1 activation ([1]; differentiated THP1, LPS 1 ug/ml 3 h, Ab 1 ug/ml 30 min, ATP 5 mM 1 h, FAM-FLICA) | caspase-1 activation in THP1 cells that have internalized the Ab ([1]; pHrodo red labelled Ab 1 ug/ml, compared to THP1 cells that did not internalize the Ab) | death of RGCs ([2]; InflaMab, FIG. 42 title) | RGC function (pERG amplitude) ([2]; single intravitreal injection Day 0, final vitreous concentration 250 ng/ml, compared to microbeads only or Inflamab at 2.5 or 25 ng/ml, preliminary) | IL-1β release [3] | internalization of the Ab [4] | preventing NLRP3 assembly [5]
1 | InflaMab: 210 kDa bispecific mouse antibody against IL-1R1 and NLRP3; light chain SEQ ID NO: 57, heavy chain SEQ ID NO: 59 (antibody) heavy: MGWTLVFLFLLSVTAGVHSQIQLVQSGPELRKPGETVRISCKASGYPFTTAGLQWVQKMSGKGLKWIGWMNTQSEVPKYAEEFKGRIAFSLETAASTAYLQINNLKTEDTATYFCAKSVYFNWRYFDVWGAGTTVTVSSAKTTAPSVYPLAPVCGDTTGSSVTLGCLVKGYFPEPVTLTWNSGSLSSGVHTFPAVLQSDLYTLSSSVTVTSSTWPSQSITCNVAHPASSTKVDKKIEPRGPTIKPCPPCKCPAPNLLGGPSVFIFPPKIKDVLMISLSPIVTCVVVDVSEDDPDVQISWFVNNVEVHTAQTQTHREDYNSTLRVVSALPIQHQDWMSGKEFKCKVNNKDLPAPIERTISKPKGSVRAPQVYVLPPPEEEMTKKQVTLTCMVTDFMPEDIYVEWTNNGKTELNYKNTEPVLDSDGSYFMYSKLRVEKKNWVERNSYSCSVVHEGLHNHHTTKSFSRTPGKGSAGGSGGDSEVQLVESGGGLVKPGGSLKLSCAASGFTFSDYYMYWVRQTPEKRLEWVATISDGGTYTYYPDSVKGRFTISRDNAKNNLYLQMNSLKSEDTAMYYCARGWVSTMVKLLSSFPYWGQGTLVTVSAGGGGSGGGGSGGGGSQAVVTQESALTTSPGETVTLTCRSSTGAVTTSNYANWVQEKPDHLFTGLIGGTNNRAPGVPARFSGSLIGDKAALTITGAQTEDEAIYFCALWYSNYWVFGGGTKLTVLGQPK light: MVSSAQFLGLLLLCFQGTRCDIVMTQSPATLSVTPGDRVSLSCRASQSISDYLSWYQQRSHESPRLIIKYASQSISGIPSRFSGSGSGSDFTLSINSVEPEDVGVYYCQHGHSFPLTFGSGTKLELKRADAAPTVSIFPPSSEQLTSGGASVVCFLNNFYPKDINVKWKIDGSERQNGVLNSWTDQDSKDSTYSMSSTLTLTKDEYERHNSYTCEATHKTSTSPIVKSFNRNEC | prevents caspase-1 activation | significant reduction of caspase-1 activation | prevents death of RGCs | recovery of RGC function | prevents IL-1β release | internalization | 
2 | F226 7A7-1E1-2D5: anti-NLRP3 monoclonal antibody from hybridoma clone, sequenced and used in the bispecific (antibody, V domains shown) VH: EVQLVESGGGLVKPGGSLKLSCAASGFTFSDYYMYWVRQTPEKRLEWVATISDGGTYTYYPDSVKGRFTISRDNAKNNLYLQMNSLKSEDTAMYYCARGWVSTMVKLLSSFPYWGQGTLVTVSAAKTTPPSVYPLA VL: QAVVTQESALTTSPGETVTLTCRSSTGAVTTSNYANWVQEKPDHLFTGLIGGTNNRAPGVPARFSGSLIGDKAALTITGAQTEDEAIYFCALWYSNYWVFGGGTKLTVLGQPKSSPSVTLFPPSTEKLSL |  |  |  |  |  |  | most active
